Data: publication PMC3118792

Biological target: mixture of human tenascin and human fibronectin matrix proteins (human)
Experiment: SPR; BIAcore X, CM4 chip with an amine-coupled mixture of human tenascin and human fibronectin (4100 RU); samples injected at 1 µM in HBS (10 mM HEPES, 150 mM NaCl, 3 mM EDTA, 0.05% P20, pH 7.4), 5 µl/minute, 25°C, 1 minute, then 1 minute dissociation; reference cell subtracted

Row | response (RU) | Substance
1 | 30 | avidin (from UniProt P02701 25-152) (natural protein)
2 | > 2000 | AvidinOX (from UniProt P02701 25-152)
